Columns and labels:
biotin-PCSK9-his (human) [1] = target: biotin-PCSK9-his (human) (UniProt Q8NBP7); assay: competitive ELISA, one antibody coated, biotin-PCSK9-his + 50-fold competing antibody; competitor 21B12 (itself)
biotin-PCSK9-his (human) [2] = target: biotin-PCSK9-his (human) (UniProt Q8NBP7); assay: competitive ELISA, one antibody coated, biotin-PCSK9-his + 50-fold competing antibody; competitor h011-3133-YTE

IR (%) (biotin-PCSK9-his (human) [1]): 97.8%
IR (%) (biotin-PCSK9-his (human) [2]): 3.01%
Substance: 21B12 (U.S. Pat. No. 8,030,457B2) (antibody)
